Drawing on US20170246372A1, this text covers IC50 for inhibiting 500 ng/ml of ADAMTS-5 (bovine cartilage explants, 2 days, 3-fold serial dilution of A2M) and Maximum inhibition (bovine cartilage explants treated with protease, 2 days) for 1 substance.

The target in the test is ADAMTS-5 (UniProt Q9UNA0). Briefly: cell-based or functional assay.
UniProt Q9UNA0, sequence (Q9UNA0 262-622 limits assumed): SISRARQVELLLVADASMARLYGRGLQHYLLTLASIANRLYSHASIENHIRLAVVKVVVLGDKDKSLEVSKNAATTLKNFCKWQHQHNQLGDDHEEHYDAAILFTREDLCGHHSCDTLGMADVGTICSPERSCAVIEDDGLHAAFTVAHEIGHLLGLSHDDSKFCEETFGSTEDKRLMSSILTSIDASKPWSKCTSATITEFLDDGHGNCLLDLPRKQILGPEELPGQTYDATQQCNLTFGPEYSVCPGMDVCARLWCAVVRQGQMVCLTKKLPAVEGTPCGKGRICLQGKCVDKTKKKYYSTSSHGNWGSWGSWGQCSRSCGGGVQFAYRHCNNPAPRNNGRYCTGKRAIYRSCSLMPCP

As to “purified A2M (alpha-2-macroglobulin) (from UniProt P01023 24-1474)”, the IC50 for inhibiting 500 ng/ml of ADAMTS-5 (bovine cartilage explants, 2 days, 3-fold serial dilution of A2M) came out at 7 µg/mL and the Maximum inhibition (bovine cartilage explants treated with protease, 2 days) turned out to be 90%.
